# Numbering of substitutions follows the chain as printed. Read-outs that look alike come from different tables or passages of the source.
# T1: recombinant human GREM1 (hGREM1-His; C-terminal 10His tagged, R&D, #5190-GR) (human, UniProt O60565 25-184, limits assumed)
# T1 sequence: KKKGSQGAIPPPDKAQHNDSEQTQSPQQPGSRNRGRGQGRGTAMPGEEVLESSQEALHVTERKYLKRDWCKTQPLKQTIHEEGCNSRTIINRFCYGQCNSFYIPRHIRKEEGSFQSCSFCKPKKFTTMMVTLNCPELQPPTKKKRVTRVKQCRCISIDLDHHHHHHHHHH
# T2: human GREM1 (hGREM1-His; SEQ ID NO: 595) (human, UniProt O60565 25-184)
# T2 construct: also called biotin-hGREM1-His; recombinant human GREM1 protein
# T2 sequence: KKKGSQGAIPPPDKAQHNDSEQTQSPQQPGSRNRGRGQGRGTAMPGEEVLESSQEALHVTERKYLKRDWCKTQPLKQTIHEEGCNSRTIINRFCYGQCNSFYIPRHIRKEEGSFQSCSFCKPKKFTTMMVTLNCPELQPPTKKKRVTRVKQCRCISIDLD
# B1: H2aM2899N (antibody, mouse IgG2, V domains shown)
# VH: QVQLVQSGAEVKKPGASVKVSCKASGFTFTSYDINWVRQATGQGLEWMGWMNPKSGNTDYAQKFLGRVTLTRNTSKSTAYMELSSLRSEDTAVYYCARGKQLVFDYWGQGTLVTVSA
# VL: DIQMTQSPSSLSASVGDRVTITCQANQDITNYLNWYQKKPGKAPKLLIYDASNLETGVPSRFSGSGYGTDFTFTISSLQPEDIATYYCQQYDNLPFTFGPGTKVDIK
# notes: H2M prefix = mouse IgG2 Fc (here H2aM); also called H2M2899N
# B2: H3M2788N (antibody, V domains shown)
# VH: QVQLVESGGGVVQPGRSLRLSCAASGFTFSSHGMHWVRQAPGKGLEWVAVIWYDGSNKYHADSVKGRFTIYRDNSKNTLDLQMNSLRVEDTAMYYCAREDSNNEDLDYWGQGTLVTVSS
# VL: DIQMTQSPSSLSASVGDRVTITCRASQGIRNDLGWFQQKPGKAPKRLIYVASNLQSGVPSRFSGSGSGTEFTLTISSLQPEDFATYYCLQHSNYPPWTFGQGTKVEIK
# notes: H3M prefix marks the Fc (chimeric, mouse constant domains)
# B3: H2bM2891N (antibody, mouse IgG2, V domains shown)
# VH: EVQMVESGGGLVQPGGSLRLSCAASRFTLSNYWMGWVRQAPGKGLEWVANIKQDGSEKYYVDSVRGRFTISRDNAKNSLYLQMNSLRAEDTAVYYCARDYDFWRSFDYWGQGTLVTVPS
# VL: DIQMTQSPSSVSASVGDRVTITCRASQGVSSWLAWYQQTPGKAPKLLIYVVSSLQSGVPSRFSGSGSGTDFTLTINSLQPEDFATYYCQQGNSFPYTFGQGTKLEIK
# notes: H2M prefix = mouse IgG2 Fc (here H2bM); also called H2M2891N
# B4: H2bM2906N (antibody, mouse IgG2, V domains shown)
# VH: B3 VH with R26G, P118S
# VL: B3 VL with T39K, A43T, S65R
# notes: H2M prefix = mouse IgG2 Fc (here H2bM); also called H2M2906N
# B5: H2aM2898N (antibody, mouse IgG2, V domains shown)
# VH: EVQLVESGGGLVQPGGSLRLSCAASGFTFSIYDMHWVRQATGKGLEWVSGIGNAGDTYYAGSVKGRFTISRENAKNSLYLQMNSLRAGDTAVYYCAREGPNYYYYGMDVWGQGTTVTVSS
# VL: AIQMTQSPSSLSASVGDRVTITCRASQGIRDDLGWYQQKPGKAPKLLIYAASSLQSGVPSRFSGSGSGTDFTLTISSLQPEDFATYYCLQDYNYPWTFGQGTKVEIK
# notes: H2M prefix = mouse IgG2 Fc (here H2aM); also called H2M2898N
# B6: H2bM2785N (antibody, mouse IgG2, V domains shown)
# VH: EVQLLESGGGLVQPGGSLRLSCAASGFTFSSYVMNWVRQAPGKGLEWVSAISGSGGSTSYADSVKGRSTISRDNSKNTLYLQMNSLRAEDTAVYYCAKGDIAAIVFDAFDIWGQGTMVTVSS
# VL: DIQMTQSPSSLSASVGDRVTITCQASQDISNCLNWYQHKPGKAPKLLIYDASYLETGGPSRFSGSGSGTDFTFTIRSLQPEDFATYYCQQYDNLPYTFGQGTKLEIK
# B7: H2bM2786N (antibody, mouse IgG2, V domains shown)
# VH: B6 VH with Q3H, S59Y, A61G, N84K, A103P
# VL: B6 VL with G58V, R76S, F83I
# notes: H2M prefix = mouse IgG2 Fc (here H2bM); also called H2M2786N
# B8: H4H6270P (antibody, human IgG4, V domains shown)
# VH: QVQLVESGGDVVQPGRSLRLSCAASGFTFSSYGMHWVRQAPGKGLEWVAIIWNDGSNKYYTDSVKGRFTISRDNSKNTLYLQMNGLRAEDTAIYYCARDQDQFDYWGQGTLVTVSS
# VL: EIVMTQSPATLSVSPGERATLSCRASQSISTNLAWYRQKPGQAPRLLIYDASTRATGIPARFSGSGSGTDFTLTISSLQSEDFAVYYCQQYSNWPPYTFGQGTKLEIK
# notes: H4H prefix = human IgG4 Fc
# B9: H2aM2901N (antibody, mouse IgG2, V domains shown)
# VH: EVQLVESGGGLVKPGGSLRLSCAASGFTFSYYSMIWVRQAPGKGLEWVSSISSSSSYIYYADSVKGRFTISRDNAKKSMYLQMNSLRAEDTAVYYCARGSGYPDYWGQGTLVTVSS
# VL: DIQMTQSPSSLSASVGDRVTITCRASQGINNYLAWYQQKPGKVPKLLIYAASTLRSGVPSRFSGSGSGTDFTLTISSLQPEDVATYYCQKYNSAPFTFGPGTKVDIK
# notes: H2M prefix = mouse IgG2 Fc (here H2aM); also called H2M2901N
# B10: H2bM2782N (antibody, mouse IgG2, V domains shown)
# VH: EVQLVESGGGLVQPGGSLRLSCAASGFTFSSYSMNWVRQAPGKGLEWVSSISSSSNYINYADSIKGRFTISRDNAKNSLYLQMNSLRAEDTAVYYCARVNWDYPFDCWGRGTLVTVSS
# VL: B9 VL with G28D, N30R, N31H, A34V, R55Q, T72I
# notes: H2M prefix = mouse IgG2 Fc (here H2bM); also called H2M2782N
# B11: H2bM2890N (antibody, mouse IgG2, V domains shown)
# VH: QVQLVESGGGVVQPGRSLRLTCAASGFTFSSFGMHWVRQAPGKGLEWVAIIWYDGSNKYYADSVKGRFTISRDNSKNTLYLQMNSLRAEDTAVYYCAREDNWTRDYFDYWGQGTLVTVSS
# VL: EIVLTQSPATLSLSPGERATLSCRASQSVSNFLAWYQQKPGQAPRLLIYDASNRATGIPARFSGSGSGTDFTLTISSLEPEDFAVYYCQQRSNWPPLPFGGGTKVEIK
# notes: H2M prefix = mouse IgG2 Fc (here H2bM); also called H2M2890N
# B12: H1M2907N (antibody, V domains shown)
# VH: QVQLVESGGGVVQPGRSLRLSCAASGFTFSSYGMHWVRQAPGKGLEWVAIIWNDGSNKYYVDSVKGRFTISRANSKNTLYLQMNSLRAEDTAVYYCARDGLEPDAFDIWGQGTMVTVSS
# VL: B11 VL with N31S, L97Y, P98T, G101Q, V105L
# notes: H1M prefix marks the Fc (chimeric, mouse constant domains)
# B13: H3M2929N (antibody, V domains shown)
# VH: QVQLVESGGGVVQPGRSLRLSCAASGFIFSSYGMHWVRQAPGKGLEWVAVIWNDGSNKYSADSVKGRFTVSRDNSKNTLYLQMNSLKAEDTAVYYCARDGEWEVFDYWGQGTLVTVSS
# VL: DIVMTQSPVTLSASPGERATLSCRASQSVRSNLAWYQEKPGQAPRLLIYGASTRATGIPARFSGSGSGTEFTLTISSLQSEDFAVYYCQQYNDWPPWTFGQGTKVEIK
# notes: as for B2
# Legend:
# [1] = molecular target: T1, recombinant human GREM1 (hGREM1-His; …); experiment: cell-based or functional assay
# [2] = molecular target: T2, human GREM1 (hGREM1-His; SEQ ID NO: 595); experiment: SPR, Biacore T200, 25 C, mAb captured, hGREM1-His injected;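 further: Heparin-supplemented HBS-EP+ used as running buffer, association and dissociation phases followed, Kd computed as koff divided by kon and half-life derived from koff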
# Procedure: (§1) Kinetic experiments were carried out using HBS-EP+heparin [10 mM HEPES, 150 mM NaCl, 3 mM EDTA, 0.05% (v/v) surfactant P20, 10 μg/ml heparin sodium salt, pH 7.4] as both the running buffer and the sample buffer. […] Antigen-antibody association was monitored for 150 seconds while dissociation in buffer was monitored for 420 seconds. Kinetic analysis was performed using Scrubber software version 2.0a or Biacore T200 evaluation software v1.0 to determine kₐ and kd values. KD and t_{1/2} were then calculated from the experimentally determined kₐ and kd values as KD=kd/kₐ and t_{1/2}=In(2)/kd.
# [3] = molecular target: T2, human GREM1 (hGREM1-His; SEQ ID NO: 595); experiment: SPR, Biacore T200, 37 C, mAb captured, hGREM1-His injected;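 further: HBS-EP running buffer containing heparin, association and dissociation phases tracked, KD computed as koff over kon and half-life derived from koff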
# Procedure: as §1
# [4] = molecular target: T1, recombinant human GREM1 (hGREM1-His; …); experiment: cell-based or functional assay; remark: listed apart in the source
# [5] = molecular target: T1, recombinant human GREM1 (hGREM1-His; …); experiment: BLI Octet, mAb captured, 100 nM GREM1 without vs with 5 uM heparin;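 further: octet Red96 biolayer interferometry at 25 °C, antibodies captured on anti-human IgG Fc biosensors, association of GREM1 measured with versus without heparin in HEPES-buffered saline, pH 7.4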
# Procedure: (§2) Binding measurements were conducted using an Octet Red96 label-free biomolecular interaction instrument (ForteBio). All experiments were performed at 25° C. using plate agitation at 1000 rpm. Solutions were made in an aqueous buffer containing 10 mM HEPES, 150 mM NaCl, 3 mM EDTA 0.05% P20, 0.1 mg/mL BSA and adjusted to pH of 7.4 (HBST buffer).
# (§3) Anti-Human IgG Fc Capture biosensors (ForteBio) were separately loaded with 50 μg/mL solutions of 24 different anti-GREM1 antibodies for 60 seconds. Following a 30 second wash, duplicate biosensors for each antibody were submerged into wells containing either 100 nM GREM1 solutions or 100 nM GREM1 solutions containing 5 μM of heparin, measuring association for 300 seconds.
# [6] = molecular target: T2, human GREM1 (hGREM1-His; SEQ ID NO: 595); experiment: competition ELISA, biotin-hGREM1-His (100 pM) binding to coated hBMP4
# Procedure: Data were analyzed using a sigmoidal dose-response model within Prism™ software. […] The absorbance values of the wells containing the highest concentration for each antibody were used to determine the percent maximum blocking.
# [7] = molecular target: T1, recombinant human GREM1 (hGREM1-His; …); experiment: BLI Octet, mAb captured, 100 nM GREM1;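 further: octet Red96 biolayer interferometry at 25 °C in pH 7.4 HEPES saline buffer, antibodies held on anti-human IgG Fc capture biosensors, then exposed to GREM1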
# [8] = molecular target: T1, recombinant human GREM1 (hGREM1-His; …); experiment: cell-based or functional assay; remark: listed apart in the source
# [9] = molecular target: T1, recombinant human GREM1 (hGREM1-His; …); experiment: BLI Octet, mAb captured, 100 nM GREM1 + 5 uM heparin;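 further: octet Red96 biolayer interferometry at 25 °C, antibodies captured on anti-human IgG Fc biosensors, pH 7.4 HEPES buffer with 0.1 mg/mL BSA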
# Procedure: as §2, §3
Binder,"IC50 [M], inhibition of hGREM1-His, W-20-17/BRE-luc luciferase (100 pM hBMP4, 10 nM hGREM1-His) [1]",Kd [2],koff [2],kon [2],t1/2 [2],"IC50 [M], inhibition of hGREM1-His, W-20-17/BRE-luc luciferase (200 pM hBMP4, 20 nM hGREM1-His) [1]",other results
B1,2.1e-09 M,270 nM,0.002 s⁻¹,8000 M⁻¹ s⁻¹,5.8 min,,
B2,,4.2 nM,0.00035 s⁻¹,80000 M⁻¹ s⁻¹,33 min,2.5e-08 M,
B3,1.1e-09 M,60 nM,0.0012 s⁻¹,20000 M⁻¹ s⁻¹,9.6 min,,
B4,1.6e-09 M,15 nM,0.0013 s⁻¹,80000 M⁻¹ s⁻¹,8.9 min,,
B5,1.4e-09 M,,,,,,binding result [2]: no binding (tested: 11 to 100 nM hGREM1-His injected)
B6,,,,,,2.7e-08 M,
B7,,33 nM,0.006 s⁻¹,180000 M⁻¹ s⁻¹,1.9 min,1.9e-08 M,
B8,,4.08 nM,0.000175 s⁻¹,42900 M⁻¹ s⁻¹,66 min,,"Kd [3]: 6.79 nM; koff [3]: 0.00065 s⁻¹; kon [3]: 95800 M⁻¹ s⁻¹; t1/2 [3]: 18 min; IC50 [M], inhibition of hGREM1-His, W-20-17/BRE-luc luciferase (100 pM hBMP4, 10 nM hGREM1-His) [4]: 5.4e-10 M; Reduction in Signal from Heparin at 30 sec [5]: 0.15 nm; Reduction in Signal from Heparin at 300 sec [5]: 0.06 nm; % blocked at maximum Ab tested (20 nM) [6]: 62%; IC50 [6]: 1.9 nM; Binding Signal with 30 sec Association [7]: 0.2 nm; Binding Signal with 300 sec Association [7]: 0.39 nm; hGREM1-His Inhibition IC50, M; W-20-17 cell differentiation assay (alkaline phosphatase) [8]: 3.1 nM; Binding Signal with 30 sec Association [9]: 0.05 nm; Binding Signal with 300 sec Association [9]: 0.33 nm"
B9,1.7e-09 M,8.8 nM,0.00145 s⁻¹,164000 M⁻¹ s⁻¹,8 min,,
B10,,15.3 nM,0.00189 s⁻¹,123000 M⁻¹ s⁻¹,6.1 min,3.5e-09 M,
B11,2.1e-09 M,130 nM,0.001 s⁻¹,10000 M⁻¹ s⁻¹,11.6 min,,
B12,1.8e-09 M,45.3 nM,0.00281 s⁻¹,62000 M⁻¹ s⁻¹,4.1 min,,
B13,2.2e-09 M,29 nM,0.00362 s⁻¹,125000 M⁻¹ s⁻¹,3 min,,

# Reference: US20200157194A1 (Regeneron, published 2020)
